This sample holds only a part of the variants without activity.
Assays:
[1] = system: biotinyl-Phe-oxazolone; assay: self-aminoacylation, catalytic enhancement (BFO) (fold over background); higher = more active; k-Seq, kA / k0A0; sequences stand for … in GGGAAUGGAUCCACAUCUACGAAUUC…UUCACUGCAGACUUGACGAAGCUG
Method in brief: (§1)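 Mutagenized RNA pools with a 21-nt variable region (0.43 μM) were reacted with each biotinyl-aminoacyl-oxazolone at 2–1250 μM for 90 minutes at room temperature, in 50 μL HEPES/NaCl/KCl/MgCl2/CaCl2 buffer containing 5% acetonitrile at pH 6.9–7.0. RNA captured on streptavidin was quantified by triplicate qPCR and by Illumina sequencing. The fraction reacted for each sequence was fit to a pseudo-first-order model with bootstrapping, and catalytic enhancement is the median kA divided by the uncatalyzed rate, taken as the low-activity peak of a bimodal Gaussian fit.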

[2] = system: biotinyl-Ile-oxazolone; assay: self-aminoacylation, catalytic enhancement (BIO) (fold over background); higher = more active; k-Seq, kA / k0A0; sequences stand for … in GGGAAUGGAUCCACAUCUACGAAUUC…UUCACUGCAGACUUGACGAAGCUG
Method in brief: as §1

[3] = system: biotinyl-Met-oxazolone; assay: self-aminoacylation, catalytic enhancement (BMO) (fold over background); higher = more active; k-Seq, kA / k0A0; sequences stand for … in GGGAAUGGAUCCACAUCUACGAAUUC…UUCACUGCAGACUUGACGAAGCUG
Method in brief: as §1

[4] = system: biotinyl-Val-oxazolone; assay: self-aminoacylation, catalytic enhancement (BVO) (fold over background); higher = more active; k-Seq, kA / k0A0; sequences stand for … in GGGAAUGGAUCCACAUCUACGAAUUC…UUCACUGCAGACUUGACGAAGCUG
Method in brief: as §1

[5] = system: biotinyl-Leu-oxazolone; assay: self-aminoacylation, catalytic enhancement (BLO) (fold over background); higher = more active; k-Seq, kA / k0A0; sequences stand for … in GGGAAUGGAUCCACAUCUACGAAUUC…UUCACUGCAGACUUGACGAAGCUG
Method in brief: as §1

[6] = system: biotinyl-Trp-oxazolone; assay: self-aminoacylation, catalytic enhancement (BWO) (fold over background); higher = more active; k-Seq, kA / k0A0; sequences stand for … in GGGAAUGGAUCCACAUCUACGAAUUC…UUCACUGCAGACUUGACGAAGCUG
Method in brief: as §1

ACUACCCUGGUCAUCGCGUGA [Fam2.1 aminoacylation ribozyme variant]
self-aminoacylation [1]: 163
self-aminoacylation [2]: 8.88
self-aminoacylation [3]: 17.9
self-aminoacylation [4]: 12.1
self-aminoacylation [5]: 21.5
self-aminoacylation [6]: 19.3

ACACACUUCAAGCAACCGGUC [Fam1B.1 aminoacylation ribozyme variant]
self-aminoacylation [1]: 1.43
self-aminoacylation [2]: 1.18
self-aminoacylation [3]: 1.51
self-aminoacylation [4]: 1.54
self-aminoacylation [5]: 1.17
self-aminoacylation [6]: 1.13

UUUCACCUAGGUCUUCGGGUG [Fam2.2 aminoacylation ribozyme variant]
self-aminoacylation [1]: 29
self-aminoacylation [2]: 4.04
self-aminoacylation [3]: 4.63
self-aminoacylation [4]: 4.51
self-aminoacylation [5]: 5.06
self-aminoacylation [6]: 5.4

AUUCACGUAGGUCAACGGGUG [Fam2.2 aminoacylation ribozyme variant]
self-aminoacylation [1]: 21.1
self-aminoacylation [2]: 2.77
self-aminoacylation [3]: 3.95
self-aminoacylation [4]: 3.15
self-aminoacylation [5]: 4.96
self-aminoacylation [6]: 4.47

AUCCACCUAGGUCAUCGGGUU [Fam2.2 aminoacylation ribozyme variant]
self-aminoacylation [1]: 71.1
self-aminoacylation [2]: 9.74
self-aminoacylation [3]: 14.3
self-aminoacylation [4]: 7.64
self-aminoacylation [5]: 19
self-aminoacylation [6]: 12

CUACACUUCAAGCACUCGGUC [Fam1B.1 aminoacylation ribozyme variant]
self-aminoacylation [1]: 0.867
self-aminoacylation [2]: 0.886
self-aminoacylation [3]: 0.786
self-aminoacylation [4]: 0.945
self-aminoacylation [5]: 0.757
self-aminoacylation [6]: 0.614

UUUCACCUAGGUCAUCUGGUG [Fam2.2 aminoacylation ribozyme variant]
self-aminoacylation [1]: 9.3
self-aminoacylation [2]: 1.76
self-aminoacylation [3]: 1.88
self-aminoacylation [4]: 1.86
self-aminoacylation [5]: 2.22
self-aminoacylation [6]: 2.5

CCACACCGCAAGCAAUCGGUC [Fam1B.1 aminoacylation ribozyme variant]
self-aminoacylation [1]: 0.867
self-aminoacylation [2]: 1.12
self-aminoacylation [3]: 1.13
self-aminoacylation [4]: 1.13
self-aminoacylation [5]: 0.882
self-aminoacylation [6]: 1.02

CGACACUUCAAACAAUCGGUC [Fam1B.1 aminoacylation ribozyme variant]
self-aminoacylation [1]: 22.9
self-aminoacylation [2]: 1.23
self-aminoacylation [3]: 1.31
self-aminoacylation [4]: 1.64
self-aminoacylation [5]: 1.71
self-aminoacylation [6]: 12.5

AUUACCGUGGUCAUCGAGUAA [Fam2.1 aminoacylation ribozyme variant]
self-aminoacylation [1]: 1.2
self-aminoacylation [2]: 1.42
self-aminoacylation [3]: 1.35
self-aminoacylation [4]: 1.58
self-aminoacylation [5]: 1.56
self-aminoacylation [6]: 1.93

AUUCCCUUAGGUCAUCGGGUG [Fam2.2 aminoacylation ribozyme variant]
self-aminoacylation [1]: 295
self-aminoacylation [2]: 19.3
self-aminoacylation [3]: 33.4
self-aminoacylation [4]: 20.2
self-aminoacylation [5]: 44.3
self-aminoacylation [6]: 30.7

GUUGACCUAGGUCAUCGGGUG [Fam2.2 aminoacylation ribozyme variant]
self-aminoacylation [1]: 20
self-aminoacylation [2]: 4.11
self-aminoacylation [3]: 3.52
self-aminoacylation [4]: 3.67
self-aminoacylation [5]: 5.05
self-aminoacylation [6]: 5.59

From the supplement of paper PMC9233669
